Key:
Assay type in all cases: biochemical
[1] = Hydrolysis of 4-methylumbelliferyl-β-D-xyloside, initial rates; conditions: 80° C., pH 6.5
Experimental: (§1) Parameters were determined by the method of initial rates. Activity was measured in time course assays of the hydrolysis of 4-methylumbelliferyl-β-D-glycosides (β-D-gluco, β-D-galacto, β-D-fuco, β-D-manno, β-D-xylo, β-D-glucurono) at 5-15 concentrations (0.001-1.5 mM) incubated at 80° C. in 50 mM sodium phosphate buffer, pH 6.5. Reactions were terminated at 2, 5, 10, 15 min by the addition of 100 μl of ice cold 1M NazCO3, pH 10 and analyzed (Labsystems Fluoroscan Ascent plate reader, […]). KM and kcat were derived by fitting the initial rates to hyperbolic Michaelis-Menten curves using GraFit 4 (Erithacus Software Ltd, Staines, UK).
(§2) Determination of the Michaelis-Menten parameters for the WT and mutant enzymes was performed at pH 6.5 at 80° C. for a broad range of representative, fluorophore-containing 4-methylumbelliferyl glycoside substrates, which allowed activities to be determined with a high degree of sensitivity (Table). Under these optimized assay conditions, the glucoside (Glc), galactoside (Gal) and fucoside (Fuc) substrates were hydrolysed well by SSβG-WT, but the xyloside (Xyl) substrate was hydrolysed relatively poorly (approx. 3% of turnover as determined by kcat compared with β-D-glucoside). […] In all cases the absolute D-stereospecificity and β-stereoselectivity of SSβG was maintained and no activity was detected towards L- or α-glycoside substrates.

[2] = Hydrolysis of 4-methylumbelliferyl-β-D-glucuronide, initial rates; conditions: 80° C., pH 6.5
Experimental: as §1, §2

[3] = Hydrolysis of 4-methylumbelliferyl-β-D-galactoside, initial rates; conditions: 4-MUGal, 80° C., pH 6.5
Experimental: as §1, §2

[4] = Hydrolysis of 4-methylumbelliferyl-β-D-fucoside, initial rates; conditions: 4-MUFuc, 80° C., pH 6.5
Experimental: as §1, §2

[5] = Kinetic assay with o-nitrophenyl β-D-galactopyranoside-6-phosphate, absorbance at 405 nm; conditions: oNPGalP6, 45° C., pH 6.5 phosphate buffer; averaged over 3 runs, except * 2 runs
Experimental: The kinetic activity of SsδG was assessed using ultra-violet/visible spectroscopy. Cleavage of the glycosidic bond of the nitrophenyl sugar analogue releases a chromophore (Scheme 18), either p-nitrophenol or o-nitrophenol.
The absorbance of these chromophores at 405 nm was continuously measured at regular time intervals, and the Beer-Lambert Law used to calculate the chromophore concentration at each of these time intervals.
In order to use this equation the extinction coefficient, ∈, of both p-nitrophenol and o-nitrophenol were calculated. Enzyme kinetic parameters were assessed using the initial rates method. The gradient of a plot of chromophore concentration against time gave the initial rate of reaction at a series of substrate concentrations (0.05-10 mM). Kinetic parameters were calculated by regression analysis of the kinetic data on the Michaelis-Menten Model (Fersht, A., Enzyme Structure and Mechanism, W.H. Freeman and Company, New York (1985)). The initial rate of reaction was measured. This model is valid when [substrate]>>[enzyme], which are initial rate conditions.
KM and νmax were calculated from non-linear Michaelis-Menten and linear Lineweaver-Burk plots. From these values, kcat and kcat/KM were calculated and compared.
KM=νmax/2, it is the concentration of substrate at which half the active sites are filled. Higher KM values correspond to weaker binding and lower KM values correspond to stronger binding kcat, the turnover number is the number of substrate molecules which are converted to product when the enzyme is saturated with substrate and ν (rate) is maximised. […] To allow comparison of the activity of the enzymes, ln({kcat/KM}mutant/{kcat/KM}WT) was calculated for each enzyme-substrate combination, to give overall activity relative to WT.
Substrate solutions (concentration 10 mM in 50 mM pH 6.5 phosphate buffer) were prepared. […] The enzyme stock solution (˜1 mgmL^−1) was diluted between 16- and 80-fold depending on the kinetic parameters determined*. […] Simultaneously a 96-well flat bottom microtitre plate was incubated at 45° C. in a plate reader. […] The plate containing the enzyme and substrate solutions was then incubated in the plate reader at 45° C. to allow equilibration. […] Release of p-nitrophenol/o-nitropbenol was measured by absorbance at […], with an automix of 3 s before the first read and Is between every subsequent read. The run time chosen was between 6 min and 10 min*, and readings were taken at intervals of between 6 s and 10 s*.
A graph of concentration of the released chromophore (either pNP or oNP) against time was drawn for each concentration using Microsoft Excel. […] These gradients were entered into Grafit, which calculated KM and νmax from the Michelis-Menten and Lineweaver-Burk plots. From these kcat and kcat/KM could be calculated. […]

B1: WT: Wild type β-glycosidase from Sulfolobus solfataricus (SEQ ID NO: 2), recombinant with N-terminal His6-tag (protein, listed as Sulfolobus solfataricus)
chain: MYSFPNSFRFGWSQAGFQSEMGTPGSEDPNTDWYKWVHDPENMAAGLVSGDLPENGPGYWGNYKTFHDNAQKMGLKIARLNVEWSRIFPNPLPRPQNFDESKQDVTEVEINENELKRLDEYANKDALNHYREIFKDLKSRGLYFILNMYHWPLPLWLHDPIRVRRGDFTGPSGWLSTRTVYEFARFSAYIAWKFDDLVDEYSTMNEPNVVGGLGYVGVKSGFPPGYLSFELSRRHMYNIIQAHARAYDGIKSVSKKPVGIIYANSSFQPLTDKDMEAVEMAENDNRWWFFDAIIRGEITRGNEKIVRDDLKGRLDWIGVNYYTRTVVKRTEKGYVSLGGYGHGCERNSVSLAGLPTSDFGWEFFPEGLYDVLTKYWNRYHLYMYVTENGIADDADYQRPYYLVSHVYQVHRAINSGADVRGYLHWSLADNYEWASGFSMRFGLLKVDYNTKRLYWRPSALVYREIATNGAITDEIEHLNSVPPVKPLRH
modifications: N-terminal His6 tag
[1]; 4-MUXyl
  Km: 130 ± 30 µM
  kcat: 3.8 ± 0.3 s⁻¹
[1]
  turnover (kcat) towards xyloside compared with β-D-glucoside: approx. 3%
[2]; 4-MUGlcA
  kcat: 0.81 ± 0.18 s⁻¹
[2]; 4-MUGlcA, read-out: Km
  Km: 1300 ± 400 µM
[2]
  β-D-glucuronide activity, turnover relative to β-D-glucoside: ~0.5%
[3]
  Km: 66 ± 17 µM
  kcat: 98 ± 7 s⁻¹
[4]
  Km: 11 ± 2 µM
  kcat: 80 ± 2 s⁻¹
[5]
  Km: 2090 µM
  kcat: 5.52 s⁻¹

From patent US20090181444A1, “MODIFIED CARBOHYDRATE PROCESSING ENZYME” (priority 2002, published 2009)
